Results: patent US5607847

Biological target: gp120 of HIV-1 strain IIIB (HIV-1 IIIB)

B1: murine monoclonal antibody NM-01 (antibody, V domains shown)
VH: QIQLKESGPAVIKPSQSLSLTCIVSGFSITSSSYCWHWIRQPPGKGLEWMGRICYEGSIDYSPSIKSRSTISRDTSLNRFFIQLSSVTNEDTAMYYCSRENHGTTTSMDYWGQGTSVTVSS
VL: DIVLTQSPASLAVSLGQRATISCRASESVDSYGNSFMHWYQQKPGQSPKLLIYVASNLESGVPARFSGSGSRTDFTLTIDPVEADDAATYYCQQNNEDPLTFGAGTKLELK
- 50% neutralization by the p24 assay: 0.15 µg/mL
- ID50 (reverse transcriptase assay): 0.2 µg/mL
